In paper doi:10.1101/871707 (bioRxiv, 2019):

Target: the molecule itself
Assay: cryo-EM structure

B1: human SEMA6A soluble recombinant extracellular domain (receptor)
chain: GFPEDSEPISISHGNYTKQYPVFVGHKPGRNTTQRHRLDIQMIMIMNGTLYIAARDHIYTVDIDTSHTEEIYCSKKLTWKSRQADVDTCRMKGKHKDECHNFIKVLLKKNDDALFVCGTNAFNPSCRNYKMDTLEPFGDEFSGMARCPYDAKHANVALFADGKLYSATVTDFLAIDAVIYRSLGESPTLRTVKHDSKWLKEPYFVQAVDYGDYIYFFFREIAVEYNTMGKVVFPRVAQVCKNDMGGSQRVLEKQWTSFLKARLNCSVPGDSHFYFNILQAVTDVIRINGRDVVLATFSTPYNSIPGSAVCAYDMLDIASVFTGRFKEQKSPDSTWTPVPDERVPKPRPGCCAGSSSLERYATSNEFPDDTLNFIKTHPLMDEAVPSIFNRPWFLRTMVRYRLTKIAVDTAAGPYQNHTVVFLGSEKGIILKFLARIGNSGFLNDSLFLEEMSVYNSEKCSYDGVEDKRIMGMQLDRASSSLYVAFSTCVIKVPLGRCERHGKCKKTCIASRDPYCGWIKEGGACSHLSPNSRLTFEQDIERGNTDGLGDCHNSFVALNGHSSSLLPSTTTSDSTAQEGYESRGGMLDWKHLLDSPDSTDPLGAVSSHNHQDKKGVIRESYLKGHDQLVPVT
notes: also called SEMA6A rECD; recombinant SEMA6A ectodomain
Q: With B1 as the protein, how does the “stoichiometry N” value read?
A: 2
